In the RNAGym collection of RNA variant scans (doi:10.1073/pnas.2313332121):

B1: TPR t1 (parent)
chain: GACCAAUCUGCCCUCAGAGCUCGAGAACAUCUUCGGAUGCAGAGGAGGCAGGCUUCGGUGGCGCGAUAGCGCCAACGUCCUCAACCUCCAAUGCAUCCCACCACAUGAUGAUGCCUGAAGAGCCUUGGUUUUUUG

Variants of: B1
Assay: polymerase ribozyme fitness, log enrichment relative to wild type (log ratio); higher = more active; in vitro selection for triplet polymerase activity
Method in brief: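 Mutant libraries of each subunit of a heterodimeric triplet polymerase ribozyme were built by PCR and transcribed. Each library went through one round of in vitro selection in triplicate: annealing with biotinylated primer, partner subunit and triplets, frozen incubation at −7 °C, gel excision of extended constructs, streptavidin-bead capture and RT-PCR. Input and output libraries were Illumina-sequenced; only genotypes with ≥10 input reads and ≥1 read per output were kept. Fitness is log2(genotype enrichment/wild-type enrichment), using inverse-variance-weighted replicate averages.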

Row | Variant | polymerase ribozyme fitness (log ratio)
1 | GACCAAUCUGCCCUCAGAGCUCGAGAACAUCUUCGGAUACAGAGGAGGCAGGCUUAGGUGGCGCGAUAGCGCCAACGUCCUCAACCUCCAAUGCAUCCCACCACAUGAUGAUGCCUGAAGAGCCUUGGUACUUUG | -1.5
2 | GACCAAUCUGCCCUCAGAGCUCGAGAACAUCUUCGGAGGCAGAGGAGGCAGGCUUCGGUGGCGCGAUAGCGCCAACGUCCUCAACCUCUAAUGCAUCCCACCACAUGAUGAUGCCUGAAGAGCCUUGGUUUUUUG | -0.78
3 | GACCAAUCUGCCCUCAGAGCUCGAGAACAUCUUCGGAGGCAUAGGAGGCAGGCUUCGGUGUCGCGAUAGCGCUAACGUCCUCAACCUCCAAUGCAUCCCACCACAUGAUGAUGCUUGAAGAGCCUUGGUUUUUUG | -3.73
4 | GACCAAUCUGCCCUCAGAGCUCGAGAACAUCUUCGGAGGCAGAGGAGGCAGGUUUCGGUGGCGCGAUAGCGCCAACGUCCUCAACCUCCAAUGCAUCCCACCACAUGAUGAUGCCUGAAGAGCUUUGGUUUUUUG | 0.103
5 | GACCAAUCUGCCCUCAGAGCUCGAGAACAUCUUCGGAGGCAGAGGAGGCAGGCUUCGGUGGAGCGAUAGCGCCAACGUCCUCAACCUCCAAUGCAUCCCACCACAAGAUGAUUCCUGAAGAGCCUUGGUUUUUUG | -6.66
6 | GACCAAUCUGCCCUCAGAGCUCGAGAACAUCUUCGGAGGCAGAGGAGGCAGGCUUUGGUGGCGCGAUAGCGACAACGUCCUCAACCUCCAAUGCAUCCCACCACAUGAUGAUGCCUGAAGAGCCUUGGUUCUUUG | -2.05
7 | GACCAAUCUGCCCUCAGAGCUCGAGAACAUCUUCGGAUACAGUGGAGGCAGGCUUCGGUGGCGCGAUAGCGCCAACGUCCUCAACCUCCAAUGCAUCCCACCACAUGAUGAUGCCUGAAGAGCCUUGGUUUUUUG | -1.78
8 | GACCAAUCUGCCCUCAGAGCUCGAGAACAUCUUCGGAGGCAGAGGAGGCAGUCUUCGGUGGCGCGAUAGCGCCAACGUCCUCAACCUCCAAUGCAUCCCACCACAUGAUGAUGCCUGAAGAGCCUUGGUUUUUUC | -3.58
9 | GACCAAUCUGCCCUCAGAGCUCGAGAACAUCUUCGGAGGCAGAGGAUGCAGGCUUCGGUGGCGCGAUAGCGCCAACGUCCUCAACCUCCAAUGCAUCCCACCACAUGAUGAUGCCUGAAAAGCCUUGGUCUUUUG | -1.92
10 | GACCAAUCUGCCCUCAGAGCUCGAGAACAUCUUCGGAGGCAGAGGAGGCAGGCUUCGGUGGCGCGAUAGCGCCAACGUCAUCAACCUUCAAUGCAUCCCACCACAUGAUGAUGCCUGAAGAGCCUUGGUUUUUUG | -4.45
11 | GACCAAUCUGCCCUCAGAGCUCGAGAACAUCUUCGGAGACAGAGGAGGCAGGCUUCGGUGGCGCGAUAGCGACAACGUCCACAACCUCCAAUGCAUCCCACCACAUGAUGAAGCCUGAAGAGCCUUGGUUUUUUG | -2.71
12 | GACCAAUCUGCCCUCAGAGCUCGAGAACAUCUUCGGAGGCAGAGGAGGCAGGCUUCGGUGGCGCGAUAGCGCCAACGUCCUCAACCUCCAAUGCAUCCCACCACAUGAUGAUGCCUGAAGAGCCUUGGUUUUUUU | -2.04
13 | GACCAAUCUGCCCUCAGAGCUCGAGAACAUCUUCGGAGGCAGAGGAUGCAGGCUUCGGUGGCGCGAUAGCGCCAACGUCCUCAACCUCCAAUGCAUCCCACCACAUGAUGAUGCCUGAAGAGCCUUGGUUUUUUG | -3.26
14 | GACCAAUCUGCCCUCAGAGCUCGAGAACAUCUUCGGAUACAGAGGAGGCAGGCUUCGGUGGCGCGAUAGCGCCAACGUCCUCAACCUCCGAUGCAUCCCACCACAUGAUGAUGCCUGAAGAGCCUUGGUUUUUUG | 0.17
15 | GACCAAUCUGCCCUCAGAGCUCGAGAACAUCUUCGGAGGCAAAGGAGGCAGGCUUCGGUGGCGCGAUAGCGCCAACGUUCUCAACCUCCAAUGCAUCCCACCACAUGAUGAUGCCUGAAGAGCCUUGGUUUUUUG | -2.56
16 | GACCAAUCUGCCCUCAGAGCUCGAGAACAUCUUCGGAGGCAGAAGAGGCAGGCUUCGGUGGCGCGAUAGCGCCAACGUCCUCAACCUCCAAUGCAUCCCACCACAUGAUGAUGCCUGAAGAGCCUUGGUUUUUUG | -2.72
17 | GACCAAUCUGCCCUCAGAGCUCGAGAACAUCUUCGGAUACAGAGGAGGCAGGCUUAGGUGGCGCGAUAGCGCCAACGUCCUCAACCUCCAAUGCAUCCCACCACAUGAUGAUGCCUGAAUAGCCUUGGUUUUUUG | -0.286
18 | GACCAAUCUGCCCUCAGAGCUCGAGAACAUCUUCGGAGGCAGAGGAGGCAGGCUUCGGUUGCGCGAUAGCGCCAACGUCCUCAACCUCCAAUGCAUCCCACCACAUGAUGAUGCCUGAAGAGCCUUGGUUUUUUG | -0.261
19 | GACCAAUCUGCCCUCAGAGCUCGAGAACAUCUUCGGAUACAGAGGAGGCAGGCUUCGGUGGCGCGAUAGCGCCAACGUCCUCACCCUCCAAUGCAUCCCACCACAAGAUGAUGCCUGAAGAGCCUUGGUUUUUUG | -0.784
20 | GACCAAUCUGCCCUCAGAGCUCGAGAACAUCUUCGGAUACAGAGGAGGCAGGCUUCGGUGGCGCGAUAGCGCCAACGUCCUCAACCUCCAAUGCAUCCCACCACAUGAUGAUGCCUGGAGUGCCUUGGUUUUUUG | 1.46
21 | GACCAAUCUGCCCUCAGAGCUCGAGAACAUCUUCGGAGGCAGAGGAGGCAGGCUGCGGUGGCGCGAUAGCGCCAACGUCCUCAACCUCCAAUGCAUCCCACCACAUGAUGAUGCCUGAAGAGCCUUGGUUUUUUG | 0.414

Row | Variant | polymerase ribozyme fitness (log ratio)
22 | GACCAAUCUGCCCUCAGAGCUCGAGAACAUCUUCGGAGGUAGAGGAGGCAGGCUUCGGUGGCGCGAUAGCGCCAACGUCCUCAACCUCCAAUGCAUCCCACCACAUGAUGAUGCCUGAAGAGCCUUGGUUUUUUG | -1.03
23 | GACCAAUCUGCCCUCAGAGCUCGAGAACAUCUUCGGAUACAGAGGAGGCAGGUUUCGGUGCCGCGAUAGCGCCAACGUCCUCAUCCUCCAAUGCAUCCCACCACAUGAUGAUGCCUGAAGAGCCUUCGUUUUUUG | -2.2
24 | GACCAAUCUGCCCUCAGAGCUCGAGAACAUCUUCGGAUAAAGAGGAGGCAGGCUUCGGUGGCGCGAUAGCGCCAACGUCCUCAACCUCCAAUGCAUCCCACCACAUGAUGAUGCCUGAAGAGCCUUGGUUUUUUG | -3.25
25 | GACCAAUCUGCCCUCAGAGCUCGAGAACAUCUUCGGAGGCAGAGGAGGCAGGCUUCGGUGGCGCGAUAGCGCCAACGUCCUCAACCUCCAAUGCAUUCCACCACAUGAUGAUGCCUGAAGAGCCUUGGUUUUUUG | -4.33
26 | GACCAAUCUGCCCUCAGAGCUCGAGAACAUCUUCGGAGGCAGAGGAGGCAGGCUUCGGUGGCGCGAUAGCGCCAACGUCCUCAACCUCCAAUGCAUCCCACCACAUGAUGAUGCCUGAAGCGCCUUGGUUUUUUG | 1.24
27 | GACCAAUCUGCCCUCAGAGCUCGAGAACAUCUUCGGAGGCAGAGGAGGCAGGCUUCGGUGGCGCGAUAGCGCCAACGUCUUCAACCUCCAAUGCAUCCCACCACAUGAUGAUGCCUGAAGAGCCUUGGUUUUUUG | -1.64
28 | GACCAAUCUGCCCUCAGAGCUCGAGAACAUCUUCGGAGGCAGAGGAGGUAGGCUUCGGUGGCGCGAUAGCGCCAACGUCCUCAACCUCCAAUGCAUCCCACCACAUGAUGAUGCCUGAAGAGCCGUGGUUUUUUG | -2.98
29 | GACCAAUCUGCCCUCAGAGCUCGAGAACAUCUUCGGAGGCAGAGGAGGCAGGCUUCGGUGGCGCGAUAGCGCCAACGUCCUCAACCUCCAAUGCAUCCCACUACAUGAUGAUGCCUGAAGAGCCUUGGUUUUUUG | -3.84
30 | GACCAAUCUGCCCUCAGAGCUCGAGAACAUCUUCGGAGGCAGAGGAGGCAGGCUUCGGUGGCGCGAUAGCGCCAACGACCUCAACCUCCAAUGCAUCCCACCACAUGAUGAUGCCUGAAGAGCCUUGGUUUUUUG | -0.0381
31 | GACCAAUCUGCCCUCAGAGCUCGAGAACAUCUUCGGAUACAGAGGAGGCCGGCUUCGGUGGCGCGAUAGCGCAAACGUACUGAACCUCCAAUGCAUCCCACCACAUGAUGAUGCCUGAAGAGCCUUGGUUUUUUG | -0.859
32 | GACCAAUCUGCCCUCAGAGCUCGAGAACAUCUUCGGAUACAGAGGAGGCAGGCUUCGGUGGCGCGAUGGCGCCAACGUCCUCAACCUCCAAUGCAUCCCACCACAUGAUGAUGCGUGAAGAGCCUUGGUAUUUUG | -6.03
33 | GACCAAUCUGCCCUCAGAGCUCGAGAACAUCUUCGGAGGCAGAGGAGGAAGGCUUCGGUGGCGCGAUAGCGCCAACUUCCUCAAGCUCCAAUGCAUCCCACCACAUGAUGAUGCAUGAAGAGCCUUGGUUUUUUG | -3.84
34 | GACCAAUCUGCCCUCAGAGCUCGAGAACAUCUUCGGAGGCAGAGGAGGCAGGCUUCGGUGGCGCGAUAGCGCGAACGUCCUCAACCUCCAAUGCCUCCCCCCACAAGAUGAUGCCUGAAGAGCCUUAGUUUUUUG | -2.6
35 | GACCAAUCUGCCCUCAGAGCUCGAGAACAUCUUCGGAGGCAGAGGAGGCAGGAUUCGGUGGCGCGAUAGCGCCAACGUCCCCAACCUCCAAUGCAUCCCAUCACAUGAUGAUGCCUGAAGAGCGUUGGUUUUUUG | 1
36 | GACCAAUCUGCCCUCAGAGCUCGAGAACAUCUUCGGAGGCAGAGGAGGCAGACUUCGGUGGCCCGAUAGCGCCAACGUCCUCAACCUCCAAUGCAUCCCACCACAUGAUGAUGCCUGAAGAGCCUUGGUUUUUUG | -2.23
37 | GACCAAUCUGCCCUCAGAGCUCGAGAACAUCUUCGGAUACAGAGGAGGCAGGCUUAGGUGGCGCGAUAGCGCCAACGUCCUCAACCUCCAAUGCAUCCCACCACAUGAUGAUGCCUGAAGAGCCUUGGUUUUUUG | -0.909
38 | GACCAAUCUGCCCUCAGAGCUCGAGAACAUCUUCGGAGGCAGAGGAGGCAGGCUUCGGUGGCGCGAUAGCGCCAACGUCCUGAACCUCCAAUGCGUCCCACCACAUGAUGAUGCCUGAAGAGCCUUGGUUUUUUG | -2.72
39 | GACCAAUCUGCCCUCAGAGCUCGAGAACAUCUUCGGAGGCAGAGGAGGCAGCCUGCGGUGGCGCGAUAGCGCCUACGUCCUCAACCUCCAAUGCAUCCCACCACAUGAUGAUGCCUGAAGAGCCUUGGUUUUUUG | -2.31
40 | GACCAAUCUGCCCUCAGAGCUCGAGAACAUCUUCGGAGGCAGAGGAGGCAGGCUUCGGUGGCGCGAUAGCGCCAACGUCCUCAACCUCCAAUGCAUCCCAACACAUGAUGAUGCCUGAAGAGCCUUGGUUUUUUG | -1.88
41 | GACCAAUCUGCCCUCAGAGCUCGAGAACAUCUUCGGAGGCACUGGAGGCAGGCUUCGGUGGCGCGAUAGCCCCAACGUCCUUAACCUCCAAUGCAUCCCACCACAUGAUGAUGCUUGAAGAGCCUUGGUUUUUUG | -4.36
42 | GACCAAUCUGCCCUCAGAGCUCGAGAACAUCUUCGGAGGCAGAGGAGGCAGGCUUCGGUGGCGCGAUAGCGCCAACGUCCUCAACCUCCAAUGCAUCCCACCACAAGAUGAUGCCUGAAGAGCCUUGGUUUUUUG | -1.09
